# T1: His-SUMO-FGF23 (N-terminal domain of human FGF23, wild type) (human, UniProt Q9GZV9 25-204)
# T1 chain: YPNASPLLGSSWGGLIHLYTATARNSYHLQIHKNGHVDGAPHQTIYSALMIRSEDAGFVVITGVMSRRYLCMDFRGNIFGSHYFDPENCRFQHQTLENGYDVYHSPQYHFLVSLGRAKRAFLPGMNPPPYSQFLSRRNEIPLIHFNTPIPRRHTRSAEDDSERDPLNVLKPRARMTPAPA
# Biological target: T1, His-SUMO-FGF23 (N-terminal domain of …)
# Test: ELISA
row,Kd [nM],Binder
1,0.77,"Burosumab (wild type) (antibody, V domains shown) VH: QVQLVQSGAEVKKPGASVKVSCKASGYTFTNHYMHWVRQAPGQGLEWMGIINPISGSTSNAQKFQGRVTMTRDTSTSTVYMELSSLRSEDTAVYYCARDIVDAFDFWGQGTMVTVSS VL: AIQLTQSPSSLSASVGDRVTITCRASQGISSALVWYQQKPGKAPKLLIYDASSLESGVPSRFSGSGSGTDFTLTISSLQPEDFATYYCQQFNDYFTFGPGTKVDIK"
2,0.21,"Burosumab variant with combined VH:V97A and VL:A32S mutations (antibody, V domains shown) VH: QVQLVQSGAEVKKPGASVKVSCKASGYTFTNHYMHWVRQAPGQGLEWMGIINPISGSTSNAQKFQGRVTMTRDTSTSTVYMELSSLRSEDTAVYYCARDIADAFDFWGQGTMVTVSS VL: AIQLTQSPSSLSASVGDRVTITCRASQGISSSLVWYQQKPGKAPKLLIYDASSLESGVPSRFSGSGSGTDFTLTISSLQPEDFATYYCQQFNDYFTFGPGTKVDIK"
3,0.65,"Burosumab VH:V97A (antibody, V domains shown) VH: QVQLVQSGAEVKKPGASVKVSCKASGYTFTNHYMHWVRQAPGQGLEWMGIINPISGSTSNAQKFQGRVTMTRDTSTSTVYMELSSLRSEDTAVYYCARDIADAFDFWGQGTMVTVSS VL: AIQLTQSPSSLSASVGDRVTITCRASQGISSALVWYQQKPGKAPKLLIYDASSLESGVPSRFSGSGSGTDFTLTISSLQPEDFATYYCQQFNDYFTFGPGTKVDIK"
4,0.48,"Burosumab VL:A32S (antibody, V domains shown) VH: QVQLVQSGAEVKKPGASVKVSCKASGYTFTNHYMHWVRQAPGQGLEWMGIINPISGSTSNAQKFQGRVTMTRDTSTSTVYMELSSLRSEDTAVYYCARDIVDAFDFWGQGTMVTVSS VL: AIQLTQSPSSLSASVGDRVTITCRASQGISSSLVWYQQKPGKAPKLLIYDASSLESGVPSRFSGSGSGTDFTLTISSLQPEDFATYYCQQFNDYFTFGPGTKVDIK"
